Like-named read-outs stand apart in the source and are kept apart here.
How the values were obtained:
R recombinase [1] = experiment: cell_activity; conditions: in vivo resolution after 4 h in LB+IPTG (3% after 1 h)
R recombinase [2] = conditions: in vitro resolution between RS sites, recombinants

For RS site, the activity (R recombinase [1]) was 15% and the activity (R recombinase [2]) was 30%.
